# Data taken from paper PMC11477680, “A Label-Free Electrochemical Aptamer Sensor for Sensitive Detection of Cardiac Troponin I Based on AuNPs/PB/PS/GCE”.
# T1: myoglobin (Myo) (UniProt P02144 2-154)
# T1 sequence: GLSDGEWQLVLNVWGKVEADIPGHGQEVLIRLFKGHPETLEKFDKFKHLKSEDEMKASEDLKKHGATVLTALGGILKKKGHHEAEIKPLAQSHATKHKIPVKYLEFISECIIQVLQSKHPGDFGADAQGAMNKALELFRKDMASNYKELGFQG
# What was measured:
# [1] = target: T1, myoglobin (Myo); assay: electrochemical aptasensor (DPV); 1 ng/mL; negligible current change; Aptamer immobilization: 20 mM Tris-HCl, 5 mM MgCl2, 50 mM NaCl, pH 7.4, 4 C; cTnI incubation 1 h (serum samples: 10% serum in 20 mM Tris-HCl, 150 mM NaCl, pH 7.4, 37 C); DPV read in 0.8 M KNO3, CV/EIS in 0.1 M PBS with 5 mM [Fe(CN)6]3-/4-; conditions: protein: commercial
# [2] = target: cardiac troponin I (cTnI) (UniProt P19429 2-210); assay: electrochemical aptasensor (DPV, CV, EIS); DPV response 10 fg/mL-1.0 ug/mL, LOD 2.03 fg/mL; Rct 514 to 606 ohm with 100 ng/mL cTnI; Aptamer immobilization: 20 mM Tris-HCl, 5 mM MgCl2, 50 mM NaCl, pH 7.4, 4 C; cTnI incubation 1 h (serum samples: 10% serum in 20 mM Tris-HCl, 150 mM NaCl, pH 7.4, 37 C); DPV read in 0.8 M KNO3, CV/EIS in 0.1 M PBS with 5 mM [Fe(CN)6]3-/4-; conditions: protein: commercial
# cardiac troponin I (cTnI), sequence (P19429 2-210): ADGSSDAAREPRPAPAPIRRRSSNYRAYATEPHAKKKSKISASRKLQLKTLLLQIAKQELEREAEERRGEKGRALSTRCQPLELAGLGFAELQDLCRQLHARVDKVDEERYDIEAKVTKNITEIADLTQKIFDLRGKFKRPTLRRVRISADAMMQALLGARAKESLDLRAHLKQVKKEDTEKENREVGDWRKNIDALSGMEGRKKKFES
binder,measurement,setting,value
"CGTGCAGTACGCCAACCTTTCTCATGCGCTGCCCCCCTCTTA (ssDNA, 5'-SH-(C6) thiol linker) [Tro4]",binding result,[1],no binding
same,binding result,[2],binds
